Results reported in PMC6810650 (Cell, 2019).

Legend:
[1] = target: T1, 6His-PUX9 (Arabidopsis thaliana, UniProt Q4V3D3 1-469); test: ITC
T1 sequence (looked up): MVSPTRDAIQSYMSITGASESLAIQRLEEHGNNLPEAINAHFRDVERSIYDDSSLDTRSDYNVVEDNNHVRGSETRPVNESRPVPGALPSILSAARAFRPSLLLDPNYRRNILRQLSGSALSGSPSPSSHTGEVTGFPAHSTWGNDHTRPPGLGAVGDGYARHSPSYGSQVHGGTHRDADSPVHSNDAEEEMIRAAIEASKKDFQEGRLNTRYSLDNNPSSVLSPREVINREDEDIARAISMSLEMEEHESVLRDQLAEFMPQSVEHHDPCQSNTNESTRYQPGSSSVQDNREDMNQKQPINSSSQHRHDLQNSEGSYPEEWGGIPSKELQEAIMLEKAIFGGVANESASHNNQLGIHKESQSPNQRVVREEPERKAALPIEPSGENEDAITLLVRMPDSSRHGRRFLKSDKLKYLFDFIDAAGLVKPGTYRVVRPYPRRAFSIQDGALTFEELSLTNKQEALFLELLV

[2] = target: T2, 6His-PUX13 (Arabidopsis thaliana, UniProt Q9C5G7 1-525); test: ITC
T2 sequence (looked up): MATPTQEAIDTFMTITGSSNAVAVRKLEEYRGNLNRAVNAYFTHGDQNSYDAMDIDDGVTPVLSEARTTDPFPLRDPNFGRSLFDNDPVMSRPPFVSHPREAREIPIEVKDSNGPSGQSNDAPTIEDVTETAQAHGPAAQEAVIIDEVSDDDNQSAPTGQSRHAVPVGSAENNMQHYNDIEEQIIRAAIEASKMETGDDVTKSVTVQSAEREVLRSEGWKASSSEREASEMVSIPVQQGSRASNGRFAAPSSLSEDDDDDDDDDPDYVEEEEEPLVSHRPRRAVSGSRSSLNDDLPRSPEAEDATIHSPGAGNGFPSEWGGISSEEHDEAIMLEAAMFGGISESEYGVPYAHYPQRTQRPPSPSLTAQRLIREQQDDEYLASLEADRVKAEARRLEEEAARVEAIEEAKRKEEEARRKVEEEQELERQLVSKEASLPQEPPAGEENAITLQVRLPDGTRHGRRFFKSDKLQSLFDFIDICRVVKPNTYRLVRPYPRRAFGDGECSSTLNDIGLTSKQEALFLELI

[3] = target: T3, 6His-PUX8 (Arabidopsis thaliana, UniProt F4JPR7 1-564); test: ITC
T3 sequence (looked up): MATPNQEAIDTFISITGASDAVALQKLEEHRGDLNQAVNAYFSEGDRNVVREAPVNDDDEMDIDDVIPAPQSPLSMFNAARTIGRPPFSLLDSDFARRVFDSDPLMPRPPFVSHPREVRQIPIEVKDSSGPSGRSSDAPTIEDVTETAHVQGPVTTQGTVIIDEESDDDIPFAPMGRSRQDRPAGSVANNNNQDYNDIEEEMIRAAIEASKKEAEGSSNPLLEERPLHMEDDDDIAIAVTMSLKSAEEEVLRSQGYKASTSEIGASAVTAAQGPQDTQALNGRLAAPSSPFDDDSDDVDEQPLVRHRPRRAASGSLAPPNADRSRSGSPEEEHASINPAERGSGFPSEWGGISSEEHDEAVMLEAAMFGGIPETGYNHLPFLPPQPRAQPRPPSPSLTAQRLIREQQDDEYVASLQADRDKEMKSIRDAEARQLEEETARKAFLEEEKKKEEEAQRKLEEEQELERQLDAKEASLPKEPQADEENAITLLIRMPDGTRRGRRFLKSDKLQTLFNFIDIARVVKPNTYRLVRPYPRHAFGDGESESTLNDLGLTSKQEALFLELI

[4] = target: T4, 6His-PUX7 (Arabidopsis thaliana, UniProt Q94JZ8 1-468); test: ITC
T4 sequence (looked up): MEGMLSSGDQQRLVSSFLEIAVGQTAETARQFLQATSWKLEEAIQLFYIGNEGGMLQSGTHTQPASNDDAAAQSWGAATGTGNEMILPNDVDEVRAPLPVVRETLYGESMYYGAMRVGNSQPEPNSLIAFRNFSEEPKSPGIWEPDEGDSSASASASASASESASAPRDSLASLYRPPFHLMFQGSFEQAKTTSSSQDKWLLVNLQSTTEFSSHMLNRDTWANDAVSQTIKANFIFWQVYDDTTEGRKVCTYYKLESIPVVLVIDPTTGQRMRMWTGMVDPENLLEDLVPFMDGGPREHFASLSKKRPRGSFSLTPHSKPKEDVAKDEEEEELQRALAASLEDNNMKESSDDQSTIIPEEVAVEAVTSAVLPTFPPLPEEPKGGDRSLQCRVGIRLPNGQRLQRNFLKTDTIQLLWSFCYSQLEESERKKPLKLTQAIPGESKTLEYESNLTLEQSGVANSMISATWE

[5] = target: T5, GST-PUX9 (Arabidopsis thaliana, UniProt Q4V3D3 1-469); test: pull-down
T5 sequence (looked up): T1 sequence (looked up)

[6] = target: T6, GST-PUX7 (Arabidopsis thaliana, UniProt Q94JZ8 1-468); test: pull-down
T6 sequence (looked up): T4 sequence (looked up)

[7] = target: T7, GST-PUX13 (Arabidopsis thaliana, UniProt Q9C5G7 1-525); test: pull-down
T7 sequence (looked up): T2 sequence (looked up)

[8] = target: T8, GST-PUX8 (Arabidopsis thaliana, UniProt F4JPR7 1-564); test: pull-down
T8 sequence (looked up): T3 sequence (looked up)

[9] = target: T9, GST-RPN10 (amino acids 201 to 386) (Arabidopsis thaliana, UniProt P55034 201-386); test: pull-down
T9 sequence (looked up): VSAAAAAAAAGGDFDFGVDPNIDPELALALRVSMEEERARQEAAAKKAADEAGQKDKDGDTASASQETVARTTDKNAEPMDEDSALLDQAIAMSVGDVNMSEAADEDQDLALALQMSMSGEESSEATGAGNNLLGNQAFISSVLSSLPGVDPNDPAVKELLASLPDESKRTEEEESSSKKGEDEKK

[10] = target: T10, HA-DSK2a (Arabidopsis thaliana, UniProt Q9SII9 1-538); test: pull-down
T10 sequence (looked up): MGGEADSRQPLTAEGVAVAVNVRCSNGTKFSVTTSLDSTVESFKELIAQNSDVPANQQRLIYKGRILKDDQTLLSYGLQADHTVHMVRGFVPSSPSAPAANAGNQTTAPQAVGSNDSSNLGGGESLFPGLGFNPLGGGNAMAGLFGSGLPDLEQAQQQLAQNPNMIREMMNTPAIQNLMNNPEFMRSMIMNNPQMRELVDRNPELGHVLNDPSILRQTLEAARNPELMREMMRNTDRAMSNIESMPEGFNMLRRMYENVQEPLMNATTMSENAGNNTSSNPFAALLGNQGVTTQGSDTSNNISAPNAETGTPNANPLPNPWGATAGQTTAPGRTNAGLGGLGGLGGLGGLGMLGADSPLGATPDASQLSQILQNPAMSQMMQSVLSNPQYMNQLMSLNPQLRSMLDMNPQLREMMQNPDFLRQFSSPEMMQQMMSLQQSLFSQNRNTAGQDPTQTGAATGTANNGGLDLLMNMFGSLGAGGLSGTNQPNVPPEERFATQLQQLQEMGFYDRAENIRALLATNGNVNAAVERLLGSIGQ

[11] = target: T11, Arabidopsis DSK2a (pull-down of Figure S1E) (Arabidopsis thaliana, UniProt Q9SII9 1-538); test: pull-down
T11 sequence (looked up): T10 sequence (looked up)

[12] = target: T12, GST-Ubx5 (S. cerevisiae, UniProt Q06682 1-500); test: pull-down
T12 sequence (looked up): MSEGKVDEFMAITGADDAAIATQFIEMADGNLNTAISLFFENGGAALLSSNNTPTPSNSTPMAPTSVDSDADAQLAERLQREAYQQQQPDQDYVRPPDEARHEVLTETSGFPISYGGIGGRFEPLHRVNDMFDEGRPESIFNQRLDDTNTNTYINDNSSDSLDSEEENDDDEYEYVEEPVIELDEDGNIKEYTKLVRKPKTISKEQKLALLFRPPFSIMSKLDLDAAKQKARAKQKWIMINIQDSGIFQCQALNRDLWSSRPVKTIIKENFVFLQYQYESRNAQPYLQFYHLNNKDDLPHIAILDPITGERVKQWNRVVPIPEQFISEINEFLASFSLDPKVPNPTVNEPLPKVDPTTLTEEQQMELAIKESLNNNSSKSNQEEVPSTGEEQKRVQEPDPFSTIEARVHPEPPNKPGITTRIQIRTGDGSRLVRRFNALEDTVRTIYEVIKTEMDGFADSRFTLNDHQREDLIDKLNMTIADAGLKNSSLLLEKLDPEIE

Measured: binding result

B1: 6His-ATG8e (natural protein, Arabidopsis thaliana, UniProt Q8S926 1-118, looked up)
chain: MNKGSIFKMDNDFEKRKAEAGRIREKYPDRIPVIVEKAEKSEVPNIDKKKYLVPSDLTVGQFVYVIRKRIKLSAEKAIFIFVDNVLPPTGELMSSVYEDKKDEDGFLYITYSGENTFG
not listed: [12]
binds: all other assays above

B2: 6His-Atg8 (yeast) (natural protein, S. cerevisiae, UniProt P38182 1-116, looked up)
chain: MKSTFKSEYPFEKRKAESERIADRFKNRIPVICEKAEKSDIPEIDKRKYLVPADLTVGQFVYVIRKRIMLPPEKAIFIFVNDTLPPTAALMSAIYQEHKDKDGFLYVTYSGENTFG
binds: [12]
